Measured values reported in paper PMC7016264, “Redox requirements for ubiquitin-like urmylation of Ahp1, a 2-Cys peroxiredoxin from yeast” (Redox Biology, 2020).

B1: His-tagged Ahp1, wild-type (recombinant) [S. cerevisiae] / itself (parent)
chain: MSDLVNKKFPAGDYKFQYIAISQSDADSESCKMPQTVEWSKLISENKKVIITGAPAAFSPTCTVSHIPGYINYLDELVKEKEVDQVIVVTVDNPFANQAWAKSLGVKDTTHIKFASDPGCAFTKSIGFELAVGDGVYWSGRWAMVVENGIVTYAAKETNPGTDVTVSSVESVLAHL

Variants of: B1
Assay: SEC-MALS
Conditions: with itself

Row | screen value [kDa] | Variant
1 | 31.6 | MSDLVNKKFPAGDYKFQYIAISQSDADSESCKMPQTVEWSKLISENKKVIITGAPAAFSPTCTVSHIPGYINYLDELVKEKEVDQVIVVTVDNPAANQAWAKSLGVKDTTHIKFASDPGCAFTKSIGFELAVGDGVYWSGRWAMVVENGIVTYAAKETNPGTDVTVSSVESVLAHL
2 | 22.8 | MSDLVNKKFPAGDYKFQYIAISQSDADSESCKMPQTVEWSKLISENKKVIITGAPAAASPTCTVSHIPGYINYLDELVKEKEVDQVIVVTVDNPFANQAWAKSLGVKDTTHIKFASDPGCAFTKSIGFELAVGDGVYWSGRWAMVVENGIVTYAAKETNPGTDVTVSSVESVLAHL
3 | 20.4 | MSDLVNKKFPAGDYKFQYIAISQSDADSESCKMPQTVEWSKLISENKKVIITGAPAAASPTCTVSHIPGYINYLDELVKEKEVDQVIVVTVDNPAANQAWAKSLGVKDTTHIKFASDPGCAFTKSIGFELAVGDGVYWSGRWAMVVENGIVTYAAKETNPGTDVTVSSVESVLAHL
